Experiment [1] concerns the target T1, human PCSK9 with a C-terminal myc-myc-hexahistidine tag (human, UniProt Q8NBP7 31-692, limits assumed).
T1 construct: also called hPCSK9-mmH; hPCSK9-mmh; not shown: C-terminal myc-myc-hexahistidine tag
Put plainly: SPR 25C pH 7.2, mAb captured.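 Further: biacore SPR, antibodies captured on anti-human Fc CM4 chip with PCSK9 flowed as analyte, rate constants from a one-to-one kinetic fit, KD and half-life derived from them.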

The target of experiment [2] is T1, human PCSK9 with a C-terminal …. Briefly: SPR 25C, mAb captured.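 Further: biacore CM4 surface bearing anti-human Fc antibody capturing the mAbs, PCSK9 binding and release rates fitted with a one-to-one model, KD and half-life derived from those rates.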
Procedure: (§1) A Biacore CM4 sensor chip was derivatized with a monoclonal mouse anti-human Fc antibody to capture human antibodies. The histidine substitution variant anti-PCSK9 antibodies were captured onto the anti-human Fc sensor surface from culture medium after transient expression in Chinese hamster ovary (CHO) cells. […] Kinetic association (kₐ) and dissociation (kd) rate constants were determined by processing and fitting the data to a 1:1 binding model using Scrubber 2.0 curve fitting software. Binding dissociation equilibrium constants (KD) and dissociative half-lives (t_{1/2}) were calculated from the kinetic rate constants as: KD (M)=kd/kₐ; and t_{1/2} (min)=(In2/(60*kd).
For experiment [3] the target is unchanged. Put plainly: SPR 25C pH 5.75, mAb captured.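 Further: biacore surface with anti-human Fc antibody capturing the antibodies, PCSK9 as analyte, one-to-one kinetic fit, KD as kd over ka, half-life derived from kd.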
Procedure: as §1

What is called Kd is a measure of binding affinity in units of concentration. Higher therefore signals a looser complex. Broadly, the t½ is the time in which the quantity being followed falls by half.

B1: VH-A97 (antibody, V domains shown)
VH: EMQLVESGGGLVQPGGSLRLSCAASGFTFSSHWMKWVRQAPGKGLEWVANINQDGSEKYYVDSVKGRFTISRDNAKNSLFLQMNSLRAEDTAVYYCHRDIVLMVYDMDYYYYGMDVWGQGTTVTVSS
VL: not shown
notes: His variant of 300N; label printed without the final H
B1: the binding result in experiment [1] is given as “no binding”.

B2: VH-F29H (antibody, V domains shown)
VH: EMQLVESGGGLVQPGGSLRLSCAASGFTHSSHWMKWVRQAPGKGLEWVANINQDGSEKYYVDSVKGRFTISRDNAKNSLFLQMNSLRAEDTAVYYCARDIVLMVYDMDYYYYGMDVWGQGTTVTVSS
VL: not shown
notes: His variant of 300N
Regarding B2, in experiment [2], the “KD ratio pH 5.75/pH 7.2” value worked out at 1.8 and the “t½ ratio pH 5.75/pH 7.2” value amounted to 0.22. In experiment [1], this molecule showed a Kd of 1.06 nM and a t½ of 46 min. In experiment [3], this molecule yielded a Kd of 1.91 nM and a t½ of 10 min.

B3: VH-M103H (antibody, V domains shown)
VH: EMQLVESGGGLVQPGGSLRLSCAASGFTFSSHWMKWVRQAPGKGLEWVANINQDGSEKYYVDSVKGRFTISRDNAKNSLFLQMNSLRAEDTAVYYCARDIVLHVYDMDYYYYGMDVWGQGTTVTVSS
VL: not shown
notes: His variant of 300N
As for B3, in experiment [2], the “KD ratio pH 5.75/pH 7.2” value came to 1.68 and the “t½ ratio pH 5.75/pH 7.2” value amounted to 0.21. Moreover, in experiment [1], the Kd came out at 3.3 nM and the t½ came to 27 min. In experiment [3], the Kd was 5.56 nM and the t½ is 6 min.

B4: VH-K58H (antibody, V domains shown)
VH: EMQLVESGGGLVQPGGSLRLSCAASGFTFSSHWMKWVRQAPGKGLEWVANINQDGSEHYYVDSVKGRFTISRDNAKNSLFLQMNSLRAEDTAVYYCARDIVLMVYDMDYYYYGMDVWGQGTTVTVSS
VL: not shown
notes: His variant of 300N
On to B4, for which, in experiment [2], the “KD ratio pH 5.75/pH 7.2” value amounted to 0.92 and the “t½ ratio pH 5.75/pH 7.2” value worked out at 0.26. In experiment [1], this molecule had a Kd of 1.39 nM and a t½ of 32 min. Also, in experiment [3], the affinity, expressed as Kd, was 1.28 nM and the t½ amounted to 8 min.

B5: VH-D115H (antibody, V domains shown)
VH: EMQLVESGGGLVQPGGSLRLSCAASGFTFSSHWMKWVRQAPGKGLEWVANINQDGSEKYYVDSVKGRFTISRDNAKNSLFLQMNSLRAEDTAVYYCARDIVLMVYDMDYYYYGMHVWGQGTTVTVSS
VL: not shown
notes: His variant of 300N
Turning to B5, in experiment [2], the “KD ratio pH 5.75/pH 7.2” value came to 4.62 and the “t½ ratio pH 5.75/pH 7.2” value came out at 0.49. Besides, in experiment [1], the affinity, expressed as Kd, was 3.91 nM and the t½ worked out at 26 min. Besides, in experiment [3], the Kd stood at 18.1 nM and the t½ amounted to 13 min.

B6: VK-T96H (antibody, V domains shown)
VH: EMQLVESGGGLVQPGGSLRLSCAASGFTFSSHWMKWVRQAPGKGLEWVANINQDGSEKYYVDSVKGRFTISRDNAKNSLFLQMNSLRAEDTAVYYCARDIVLMVYDMDYYYYGMDVWGQGTTVTVSS
VL: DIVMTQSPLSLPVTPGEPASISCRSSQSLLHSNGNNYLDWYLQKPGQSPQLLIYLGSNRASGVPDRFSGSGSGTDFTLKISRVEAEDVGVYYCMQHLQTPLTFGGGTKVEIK
notes: His variant of 300N
Consider B6, for which the binding result in experiment [1] is reported as “no binding”.

B7: VH-D54H (antibody, V domains shown)
VH: EMQLVESGGGLVQPGGSLRLSCAASGFTFSSHWMKWVRQAPGKGLEWVANINQHGSEKYYVDSVKGRFTISRDNAKNSLFLQMNSLRAEDTAVYYCARDIVLMVYDMDYYYYGMDVWGQGTTVTVSS
VL: not shown
notes: His variant of 300N
With B7, in experiment [2], the “KD ratio pH 5.75/pH 7.2” value is 0.79 and the “t½ ratio pH 5.75/pH 7.2” value amounted to 0.33. In experiment [1], this molecule gave a Kd of 0.964 nM and a t½ of 40 min. In experiment [3], the Kd came to 0.76 nM and the t½ turned out to be 13 min.

B8: VH-Q53H (antibody, V domains shown)
VH: EMQLVESGGGLVQPGGSLRLSCAASGFTFSSHWMKWVRQAPGKGLEWVANINHDGSEKYYVDSVKGRFTISRDNAKNSLFLQMNSLRAEDTAVYYCARDIVLMVYDMDYYYYGMDVWGQGTTVTVSS
VL: not shown
notes: His variant of 300N
As to B8, in experiment [2], the “KD ratio pH 5.75/pH 7.2” value came out at 1.29 and the “t½ ratio pH 5.75/pH 7.2” value came out at 0.19. In experiment [1], the Kd was 1.22 nM and the t½ amounted to 32 min. In addition, in experiment [3], binding was characterised by a dissociation constant (Kd) of 1.57 nM and the t½ stood at 6 min.

B9: VH-D99H (antibody, V domains shown)
VH: EMQLVESGGGLVQPGGSLRLSCAASGFTFSSHWMKWVRQAPGKGLEWVANINQDGSEKYYVDSVKGRFTISRDNAKNSLFLQMNSLRAEDTAVYYCARHIVLMVYDMDYYYYGMDVWGQGTTVTVSS
VL: not shown
notes: His variant of 300N
As for B9, in experiment [2], the “KD ratio pH 5.75/pH 7.2” value stood at 0.14 and the “t½ ratio pH 5.75/pH 7.2” value was found to be 0.73. In experiment [1], this molecule came in with a Kd of 46.2 nM and a t½ of 9 min. Also, in experiment [3], the Kd came to 6.32 nM and the t½ is 7 min.

B10: VH-G113H (antibody, V domains shown)
VH: EMQLVESGGGLVQPGGSLRLSCAASGFTFSSHWMKWVRQAPGKGLEWVANINQDGSEKYYVDSVKGRFTISRDNAKNSLFLQMNSLRAEDTAVYYCARDIVLMVYDMDYYYYHMDVWGQGTTVTVSS
VL: not shown
notes: His variant of 300N
On to B10, for which the binding result in experiment [1] is “no binding”.

B11: VH-I100H (antibody, V domains shown)
VH: EMQLVESGGGLVQPGGSLRLSCAASGFTFSSHWMKWVRQAPGKGLEWVANINQDGSEKYYVDSVKGRFTISRDNAKNSLFLQMNSLRAEDTAVYYCARDHVLMVYDMDYYYYGMDVWGQGTTVTVSS
VL: not shown
notes: His variant of 300N
On to B11, for which, in experiment [2], the “KD ratio pH 5.75/pH 7.2” value amounted to 3.56 and the “t½ ratio pH 5.75/pH 7.2” value amounted to 0.15. For the same molecule, in experiment [1], the Kd was 6.77 nM and the t½ came to 18 min. In experiment [3], the Kd was found to be 24.1 nM and the t½ was 3 min.

B12: VH-L102H (antibody, V domains shown)
VH: EMQLVESGGGLVQPGGSLRLSCAASGFTFSSHWMKWVRQAPGKGLEWVANINQDGSEKYYVDSVKGRFTISRDNAKNSLFLQMNSLRAEDTAVYYCARDIVHMVYDMDYYYYGMDVWGQGTTVTVSS
VL: not shown
notes: His variant of 300N
As to B12, in experiment [2], the “KD ratio pH 5.75/pH 7.2” value was determined as 3.66 and the “t½ ratio pH 5.75/pH 7.2” value was 0.31. In experiment [1], this molecule yielded a Kd of 4.89 nM and a t½ of 23 min. For the same molecule, in experiment [3], the affinity, expressed as Kd, was 17.9 nM and the t½ was determined as 7 min.

B13: VH-I51H (antibody, V domains shown)
VH: EMQLVESGGGLVQPGGSLRLSCAASGFTFSSHWMKWVRQAPGKGLEWVANHNQDGSEKYYVDSVKGRFTISRDNAKNSLFLQMNSLRAEDTAVYYCARDIVLMVYDMDYYYYGMDVWGQGTTVTVSS
VL: not shown
notes: His variant of 300N
B13: in experiment [2], the “KD ratio pH 5.75/pH 7.2” value was 1.24 and the “t½ ratio pH 5.75/pH 7.2” value was determined as 0.34. In experiment [1], this molecule yielded a Kd of 0.828 nM and a t½ of 50 min. In experiment [3], this molecule displayed a Kd of 1.03 nM and a t½ of 17 min.

B14: VH-E57H (antibody, V domains shown)
VH: EMQLVESGGGLVQPGGSLRLSCAASGFTFSSHWMKWVRQAPGKGLEWVANINQDGSHKYYVDSVKGRFTISRDNAKNSLFLQMNSLRAEDTAVYYCARDIVLMVYDMDYYYYGMDVWGQGTTVTVSS
VL: not shown
notes: His variant of 300N
As for B14, in experiment [2], the “KD ratio pH 5.75/pH 7.2” value was found to be 1.03 and the “t½ ratio pH 5.75/pH 7.2” value came out at 0.26. In experiment [1], this molecule returned a Kd of 1.2 nM and a t½ of 30 min. Moreover, in experiment [3], the Kd worked out at 1.23 nM and the t½ is 8 min.

B15: VH-F27H (antibody, V domains shown)
VH: EMQLVESGGGLVQPGGSLRLSCAASGHTFSSHWMKWVRQAPGKGLEWVANINQDGSEKYYVDSVKGRFTISRDNAKNSLFLQMNSLRAEDTAVYYCARDIVLMVYDMDYYYYGMDVWGQGTTVTVSS
VL: not shown
notes: His variant of 300N
As to B15, in experiment [2], the “KD ratio pH 5.75/pH 7.2” value is 0.87 and the “t½ ratio pH 5.75/pH 7.2” value was 0.29. In experiment [1], this molecule came in with a Kd of 1.21 nM and a t½ of 42 min. In experiment [3], this molecule gave a Kd of 1.05 nM and a t½ of 12 min.

B16: VH-R98H (antibody, V domains shown)
VH: EMQLVESGGGLVQPGGSLRLSCAASGFTFSSHWMKWVRQAPGKGLEWVANINQDGSEKYYVDSVKGRFTISRDNAKNSLFLQMNSLRAEDTAVYYCAHDIVLMVYDMDYYYYGMDVWGQGTTVTVSS
VL: not shown
notes: His variant of 300N
As to B16, in experiment [2], the “KD ratio pH 5.75/pH 7.2” value turned out to be 1.75 and the “t½ ratio pH 5.75/pH 7.2” value was 0.28. In addition, in experiment [1], the Kd worked out at 4.29 nM and the t½ came to 23 min. In experiment [3], this molecule showed a Kd of 7.52 nM and a t½ of 6 min.

B17: VK-S32H (antibody, V domains shown)
VH: EMQLVESGGGLVQPGGSLRLSCAASGFTFSSHWMKWVRQAPGKGLEWVANINQDGSEKYYVDSVKGRFTISRDNAKNSLFLQMNSLRAEDTAVYYCARDIVLMVYDMDYYYYGMDVWGQGTTVTVSS
VL: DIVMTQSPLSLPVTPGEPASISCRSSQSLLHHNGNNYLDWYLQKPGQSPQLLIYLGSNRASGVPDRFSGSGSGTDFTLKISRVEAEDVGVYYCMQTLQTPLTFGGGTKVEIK
notes: His variant of 300N
On to B17, for which the binding result in experiment [1] is “no binding”.

B18: VH-G26H (antibody, V domains shown)
VH: EMQLVESGGGLVQPGGSLRLSCAASHFTFSSHWMKWVRQAPGKGLEWVANINQDGSEKYYVDSVKGRFTISRDNAKNSLFLQMNSLRAEDTAVYYCARDIVLMVYDMDYYYYGMDVWGQGTTVTVSS
VL: not shown
notes: His variant of 300N
As to B18, in experiment [2], the “KD ratio pH 5.75/pH 7.2” value stood at 0.97 and the “t½ ratio pH 5.75/pH 7.2” value turned out to be 0.26. Further, in experiment [1], the Kd stood at 0.985 nM and the t½ is 47 min. In experiment [3], the Kd is 0.956 nM and the t½ was 12 min.

B19: VH-G55H (antibody, V domains shown)
VH: EMQLVESGGGLVQPGGSLRLSCAASGFTFSSHWMKWVRQAPGKGLEWVANINQDHSEKYYVDSVKGRFTISRDNAKNSLFLQMNSLRAEDTAVYYCARDIVLMVYDMDYYYYGMDVWGQGTTVTVSS
VL: not shown
notes: His variant of 300N
Consider B19, for which, in experiment [2], the “KD ratio pH 5.75/pH 7.2” value came to 1.13 and the “t½ ratio pH 5.75/pH 7.2” value is 0.28. In experiment [1], this molecule yielded a Kd of 0.921 nM and a t½ of 53 min. For the same molecule, in experiment [3], the Kd came to 1.04 nM and the t½ was 15 min.

B20: VH-N52H (antibody, V domains shown)
VH: EMQLVESGGGLVQPGGSLRLSCAASGFTFSSHWMKWVRQAPGKGLEWVANIHQDGSEKYYVDSVKGRFTISRDNAKNSLFLQMNSLRAEDTAVYYCARDIVLMVYDMDYYYYGMDVWGQGTTVTVSS
VL: not shown
notes: His variant of 300N
As to B20, in experiment [2], the “KD ratio pH 5.75/pH 7.2” value worked out at 1.84 and the “t½ ratio pH 5.75/pH 7.2” value was found to be 0.16. Further, in experiment [1], the Kd is 2.35 nM and the t½ was determined as 21 min. In experiment [3], the Kd was 4.33 nM and the t½ was determined as 3 min.

For the origin of these results see patent US20140044730A1 (Regeneron, published 2014).
